This note sets out measurements from IntAct's records for PubMed 31515488.

The labels stand for the following.
B1: Septin-12 (Homo sapiens), Q8IYM1 (parent)
chain: MDPLRRSPSPCLSSQPSSPSTPPCEMLGPVGIEAVLDQLKIKAMKMGFEFNIMVVGQSGLGKSTMVNTLFKSKVWKSNPPGLGVPTPQTLQLHSLTHVIEEKGVKLKLTVTDTPGFGDQINNDNCWDPILGYINEQYEQYLQEEILITRQRHIPDTRVHCCVYFVPPTGHCLRPLDIEFLQRLCRTVNVVPVIARADSLTMEEREAFRRRIQQNLRTHCIDVYPQMCFDEDINDKILNSKLRDRIPFAVVGADQEHLVNGRCVLGRKTKWGIIEVENMAHCEFPLLRDLLIRSHLQDLKDITHNIHYENYRVIRLNESHLLPRGPGWVNLAPASPGQLTTPRTFKVCRGAHDDSDDEF
partner: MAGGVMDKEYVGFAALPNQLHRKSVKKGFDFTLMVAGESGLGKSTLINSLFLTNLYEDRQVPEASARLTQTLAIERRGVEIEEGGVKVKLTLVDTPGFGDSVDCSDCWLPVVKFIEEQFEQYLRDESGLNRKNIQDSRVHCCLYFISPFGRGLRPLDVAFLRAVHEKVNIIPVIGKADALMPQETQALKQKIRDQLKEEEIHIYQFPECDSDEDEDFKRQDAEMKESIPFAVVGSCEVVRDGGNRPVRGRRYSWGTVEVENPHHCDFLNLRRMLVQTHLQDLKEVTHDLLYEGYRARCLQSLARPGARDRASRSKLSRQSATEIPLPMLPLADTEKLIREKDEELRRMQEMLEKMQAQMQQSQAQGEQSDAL
B2: Barrier-to-autointegration factor (Homo sapiens), O75531 (parent)
chain: MTTSQKHRDFVAEPMGEKPVGSLAGIGEVLGKKLEERGFDKAYVVLGQFLVLKKDEDLFREWLKDTCGANAKQSRDCFGCLREWCDAFL
partner: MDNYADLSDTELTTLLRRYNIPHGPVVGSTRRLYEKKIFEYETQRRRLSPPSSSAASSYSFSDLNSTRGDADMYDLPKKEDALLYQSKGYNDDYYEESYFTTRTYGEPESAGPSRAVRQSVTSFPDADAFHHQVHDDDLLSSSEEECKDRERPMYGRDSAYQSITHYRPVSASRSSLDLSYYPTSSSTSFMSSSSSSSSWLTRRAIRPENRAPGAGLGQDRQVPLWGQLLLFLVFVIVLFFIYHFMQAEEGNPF
B3: Isoform 1 of Myotubularin-related protein 9 (Homo sapiens), Q96QG7-1 (parent)
chain: MEFAELIKTPRVDNVVLHRPFYPAVEGTLCLTGHHLILSSRQDNTEELWLLHSNIDAIDKRFVGSLGTIIIKCKDFRIIQLDIPGMEECLNIASSIEALSTLDSITLMYPFFYRPMFEVIEDGWHSFLPEQEFELYSSATSEWRLSYVNKEFAVCPSYPPIVTVPKSIDDEALRKVATFRHGGRFPVLSYYHKKNGMVIMRSGQPLTGTNGRRCKEDEKLINATLRAGKRGYIIDTRSLNVAQQTRAKGGGFEQEAHYPQWRRIHKSIERYHILQESLIKLVEACNDQTHNMDRWLSKLEASNWLTHIKEILTTACLAAQCIDREGASILIHGTEGTDSTLQVTSLAQIILEPRSRTIRGFEALIEREWLQAGHPFQQRCAQSAYCNTKQKWEAPVFLLFLDCVWQILRQFPCSFEFNENFLIMLFEHAYASQFGTFLGNNESERCKLKLQQKTMSLWSWVNQPSELSKFTNPLFEANNLVIWPSVAPQSLPLWEGIFLRWNRSSKYLDEAYEEMVNIIEYNKELQAKVNILRRQLAELETEDGMQESP

In the first experiment the parent is B1. The conditions noted are these: with sept1_human SEPTIN1, Q8WYJ6.
As for MDPLRRSPSPCLSSQPSSPSTPPCEMLGPVGIEAVLDQLKIKAMKMGFEFNIMVVGQSGLGKSTMVNTLFKSKVWKSNPPGLGVPTPQTLQLHSLTHVIEEKGVKLKLTVMDTPGFGDQINNDNCWDPILGYINEQYEQYLQEEILITRQRHIPDTRVHCCVYFVPPTGHCLRPLDIEFLQRLCRTVNVVPVIARADSLTMEEREAFRRRIQQNLRTHCIDVYPQMCFDEDINDKILNSKLRDRIPFAVVGADQEHLVNGRCVLGRKTKWGIIEVENMAHCEFPLLRDLLIRSHLQDLKDITHNIHYENYRVIRLNESHLLPRGPGWVNLAPASPGQLTTPRTFKVCRGAHDDSDDEF [T111M], the “effect of a mutation on the interaction” value is recorded as “disrupting interaction strength”.
Regarding MDPLRRSPSPCLSSQPSSPSTPPCEMLGPVGIEAVLDQLKIKAMKMGFEFNIMVVGQSGLGKSTMVNTLFKSKVWKSNPPGLGVPTPQTLQLHSLTHVIEEKGVKLKLTVKDTPGFGDQINNDNCWDPILGYINEQYEQYLQEEILITRQRHIPDTRVHCCVYFVPPTGHCLRPLDIEFLQRLCRTVNVVPVIARADSLTMEEREAFRRRIQQNLRTHCIDVYPQMCFDEDINDKILNSKLRDRIPFAVVGADQEHLVNGRCVLGRKTKWGIIEVENMAHCEFPLLRDLLIRSHLQDLKDITHNIHYENYRVIRLNESHLLPRGPGWVNLAPASPGQLTTPRTFKVCRGAHDDSDDEF [T111K], the “effect of a mutation on the interaction” value is recorded as “disrupting interaction strength”.
With MDPLRRSPSPCLSSQPSSPSTPPCEMLGPVGIEAVLDQLKIKAMKMGFEFNIMVVGQSGLGKSTMVNTLFKSKVWKSNPPGLGVPTPQTLQLHSLTHVIEEKGVKLKLTVTDTPGFGDQINNDNCWDPILGYINEQYEQYLQEEILITRQRHIPDTRVHCCVYFVPPTGHCLRPLDIEFLQRLCRTVNVVPVIARADSLTMEEREAFRRRIQQNLRTHCIDIYPQMCFDEDINDKILNSKLRDRIPFAVVGADQEHLVNGRCVLGRKTKWGIIEVENMAHCEFPLLRDLLIRSHLQDLKDITHNIHYENYRVIRLNESHLLPRGPGWVNLAPASPGQLTTPRTFKVCRGAHDDSDDEF [V222I], the “effect of a mutation on the interaction” value is listed as “disrupting interaction strength”.
On to MDPLRRSPSPCLSSQPSSPSTPPCEMLGPVGIEAVLDQLKIKAMKMGFEFNIMVVGQSGLGKSTMVNTLFKSKVWKSNPPGLGVPTPQTLQLHSLTHVIEEKGVKLKLTVTDTPGFGDQINNDNCWDPILGYINEQYEQYLQEEILITRQRHIPDTRVHCCVYFVPPTGHCLRPLDIEFLQRLCRTVNVVPVIARADSLTMEEREAFRRRIQQNLRTHCIDVYPQMCFDEDINDKILNSKLRDRIPFAVVGADQEHLVNGRCDLGRKTKWGIIEVENMAHCEFPLLRDLLIRSHLQDLKDITHNIHYENYRVIRLNESHLLPRGPGWVNLAPASPGQLTTPRTFKVCRGAHDDSDDEF [V263D], for which the “effect of a mutation on the interaction” value was “disrupting interaction strength”.
For the variant MDPLRRSPSPCLSSQPSSPSTPPCEMLGPVGIEAVLDQLKIKAMKMGFEFNIMVVGQSGLGKSTMVNTLFKSKVWKSNPPGLGVPTPQTLQLHSLTHVIEEKGVKLKLTVTDTPGFGDQINNDNCWDPILGYINEQYEQYLQEEILITRQRHIPDTRVHCCVYFVPPTGHCLRPLDIEFLQRLCRTVNVVPVIARADSLTMEEREAFRRRIQQNLRTHCIDVYPQMCFDEDINDKILNSKLRDRIPFAVVGADQEHLVNGRCVLGRKTKWGIIEVENMAHCEFPLLRDLLIRSHLQDLKDITHNIHYENYCVIRLNESHLLPRGPGWVNLAPASPGQLTTPRTFKVCRGAHDDSDDEF [R311C], the “effect of a mutation on the interaction” value is “disrupting interaction strength”.

In another experiment the parent is B2. The following applies: with emd_human EMD.
For MTTSQKHRDFVTEPMGEKPVGSLAGIGEVLGKKLEERGFDKAYVVLGQFLVLKKDEDLFREWLKDTCGANAKQSRDCFGCLREWCDAFL [A12T], the “effect of a mutation on the interaction” value is “with no effect”.

The variants in another experiment derive from B3. The conditions noted are these: with emil1_human EMILIN1, Q9Y6C2.
Chain of emil1_human EMILIN1, Q9Y6C2 (Q9Y6C2 whole entry): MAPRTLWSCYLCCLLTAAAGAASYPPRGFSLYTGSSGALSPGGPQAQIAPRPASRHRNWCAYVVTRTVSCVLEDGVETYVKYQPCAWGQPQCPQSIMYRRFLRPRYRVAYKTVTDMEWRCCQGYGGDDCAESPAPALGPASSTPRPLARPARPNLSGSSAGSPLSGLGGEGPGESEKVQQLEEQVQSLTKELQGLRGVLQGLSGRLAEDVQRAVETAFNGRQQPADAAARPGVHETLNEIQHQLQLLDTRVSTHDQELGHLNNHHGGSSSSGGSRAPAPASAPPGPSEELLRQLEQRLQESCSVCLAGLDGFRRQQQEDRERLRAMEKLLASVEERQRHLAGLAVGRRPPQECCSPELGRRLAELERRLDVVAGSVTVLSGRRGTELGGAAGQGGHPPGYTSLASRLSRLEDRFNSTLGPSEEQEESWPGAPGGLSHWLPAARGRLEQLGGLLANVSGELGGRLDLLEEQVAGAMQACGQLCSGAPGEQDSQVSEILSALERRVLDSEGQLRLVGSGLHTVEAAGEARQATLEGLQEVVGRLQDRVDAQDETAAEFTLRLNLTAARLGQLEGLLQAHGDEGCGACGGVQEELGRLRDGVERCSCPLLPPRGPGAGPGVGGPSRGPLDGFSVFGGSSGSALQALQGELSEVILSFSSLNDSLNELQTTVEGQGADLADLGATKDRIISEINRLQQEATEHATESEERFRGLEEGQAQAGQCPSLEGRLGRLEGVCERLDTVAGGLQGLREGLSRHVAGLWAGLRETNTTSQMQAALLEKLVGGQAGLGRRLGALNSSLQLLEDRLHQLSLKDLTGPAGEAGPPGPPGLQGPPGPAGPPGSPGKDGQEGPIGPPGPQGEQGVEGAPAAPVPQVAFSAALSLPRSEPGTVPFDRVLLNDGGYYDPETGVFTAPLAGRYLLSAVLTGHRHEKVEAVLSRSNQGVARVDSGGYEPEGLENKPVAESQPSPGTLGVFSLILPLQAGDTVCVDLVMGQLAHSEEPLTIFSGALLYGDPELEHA
Consider MEFAELIKTPRVDNVVLHRPFYPAVEGTLCLTGHHLILSSRQDNTEELWLLHSNIDAIDKRFVGSLGTIIIKCKDFRIIQLDIPGMEECLNIASSIEALSTLDSITLMYPFFYRPMFEVIEDGWHSILPEQEFELYSSATSEWRLSYVNKEFAVCPSYPPIVTVPKSIDDEALRKVATFRHGGRFPVLSYYHKKNGMVIMRSGQPLTGTNGRRCKEDEKLINATLRAGKRGYIIDTRSLNVAQQTRAKGGGFEQEAHYPQWRRIHKSIERYHILQESLIKLVEACNDQTHNMDRWLSKLEASNWLTHIKEILTTACLAAQCIDREGASILIHGTEGTDSTLQVTSLAQIILEPRSRTIRGFEALIEREWLQAGHPFQQRCAQSAYCNTKQKWEAPVFLLFLDCVWQILRQFPCSFEFNENFLIMLFEHAYASQFGTFLGNNESERCKLKLQQKTMSLWSWVNQPSELSKFTNPLFEANNLVIWPSVAPQSLPLWEGIFLRWNRSSKYLDEAYEEMVNIIEYNKELQAKVNILRRQLAELETEDGMQESP [F127I], for which the “effect of a mutation on the interaction” value was “with no effect”.

The variants in another experiment derive from B3. The following applies: with lnx1_human LNX1, Q8TBB1.
Chain of lnx1_human LNX1, Q8TBB1 (Q8TBB1 whole entry): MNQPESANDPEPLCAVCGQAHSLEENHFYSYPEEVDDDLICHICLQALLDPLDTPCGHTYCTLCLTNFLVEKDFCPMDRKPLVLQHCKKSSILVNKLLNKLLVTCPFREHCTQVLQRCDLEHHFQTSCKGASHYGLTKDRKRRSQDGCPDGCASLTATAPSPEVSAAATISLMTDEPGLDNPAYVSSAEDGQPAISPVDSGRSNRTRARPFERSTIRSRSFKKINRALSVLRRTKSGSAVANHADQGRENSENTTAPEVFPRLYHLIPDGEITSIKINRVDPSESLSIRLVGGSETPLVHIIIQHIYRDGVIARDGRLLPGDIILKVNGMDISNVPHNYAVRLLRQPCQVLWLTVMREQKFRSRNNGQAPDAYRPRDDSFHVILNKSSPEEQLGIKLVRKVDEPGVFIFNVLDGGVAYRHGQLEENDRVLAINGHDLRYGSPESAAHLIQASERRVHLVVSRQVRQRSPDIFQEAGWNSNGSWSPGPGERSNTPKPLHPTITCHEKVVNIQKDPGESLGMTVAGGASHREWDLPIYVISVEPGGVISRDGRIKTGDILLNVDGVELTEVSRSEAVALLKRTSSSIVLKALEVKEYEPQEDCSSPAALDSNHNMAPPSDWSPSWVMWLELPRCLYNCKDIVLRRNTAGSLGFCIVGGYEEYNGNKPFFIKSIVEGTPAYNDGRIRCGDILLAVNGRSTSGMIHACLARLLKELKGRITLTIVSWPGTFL
MEFAELIKTPRVDNVVLHRPFYPAVEGTLCLTGHHLILSSRQDNTEELWLLHSNIDAIDKRFVGSLGTIIIKCKDFRIIQLDIPGMEECLNIASSIEALSTLDSITLMYPFFYRPMFEVIEDGWHSILPEQEFELYSSATSEWRLSYVNKEFAVCPSYPPIVTVPKSIDDEALRKVATFRHGGRFPVLSYYHKKNGMVIMRSGQPLTGTNGRRCKEDEKLINATLRAGKRGYIIDTRSLNVAQQTRAKGGGFEQEAHYPQWRRIHKSIERYHILQESLIKLVEACNDQTHNMDRWLSKLEASNWLTHIKEILTTACLAAQCIDREGASILIHGTEGTDSTLQVTSLAQIILEPRSRTIRGFEALIEREWLQAGHPFQQRCAQSAYCNTKQKWEAPVFLLFLDCVWQILRQFPCSFEFNENFLIMLFEHAYASQFGTFLGNNESERCKLKLQQKTMSLWSWVNQPSELSKFTNPLFEANNLVIWPSVAPQSLPLWEGIFLRWNRSSKYLDEAYEEMVNIIEYNKELQAKVNILRRQLAELETEDGMQESP [F127I]: the “effect of a mutation on the interaction” value is listed as “with no effect”.
